According to US20160222130A1 (Astellas, published 2016):

Key:
Assay in all cases: ELISA; Tie2-Fc coated at 1 ug/mL, chemiluminescence
Human Tie2 (1-452)r2-Fc = target: T1, Human Tie2 (1-452)r2-Fc (human, UniProt Q02763 23-452)
T1 construct: range 1-452
Method: (§1) The next day, the immobilized solution was removed, and the plate was washed with a TBS-T solution, and incubated for 60 minutes by the addition of 50 μL of a Blocker™ Casein in TBS (Thermo Fisher Scientific Inc., 37532) to perform blocking. The resultant was washed with a TBS-T solution, and TIE-1-Igγ1-LALA, diluted with 0.05% Tween 20 (Nacalai Tesque Inc., 28353-85)—containing Blocker™ Casein in TBS from 0.03 ng/mL to 100 ng/mL through eight steps, was added thereto in the amount of 20 μL per well. The resultant was incubated at room temperature for 90 minutes and then washed with a TBS-T solution three times, and 20 μL of a biotin-labeled anti-human kappa light chain antibody, which had been diluted to 0.1 μg/mL with 0.05% Tween 20-containing Blocker™ Casein in TBS, was added thereto. The resultant was incubated at room temperature for 60 minutes and then washed with a TBS-T solution three times, and 20 μL of alkaline phosphatase-labeled streptavidin, which had been diluted to 0.1 μg/mL with 0.05% Tween 20-containing Blocker™ Casein in TBS, was added thereto. The resultant was incubated at room temperature for 60 minutes and then washed with a TBS-T solution three times, and 50 μL of Chemiluminescent Ultra Sensitive AP Microwell and/or Membrane Substrate (450 nm), which had been 5-fold diluted with 1 mM MgCl₂-containing 20 mM TBS (pH 9.8) as a substrate, was added thereto. The resultant was incubated at room temperature under light-shielding for 40 minutes, and then luminescent intensity thereof was measured with an EnVision™ multi-label counter. The EC₅₀ value of TIE-1-Igγ1-LALA with respect to the human Tie2 (1-452)-Fc chimeric protein and 23 mutant proteins thereof were calculated. The relative value of luminescent intensity of 100 ng/mL TIE-1-Igγ1-LALA as maximum concentration point with respect to human Tie2 (1-452)-Fc chimeric protein and 23 mutant proteins thereof when the convergence value of the sigmoid curve of TIE-1-Igγ1-LALA binding to the human Tie2 (1-452)-Fc chimeric protein which was taken as 100% was calculated (Table 8 and Table 9). Further, the EC₅₀ value and the convergence value were calculated by Sigmoid-Emax model non-linear regression analysis.

Human Tie2 (1-452)r3-Fc = target: T2, Human Tie2 (1-452)r3-Fc (human, UniProt Q02763 23-452)
T2 construct: range 1-452
Method: as §1

Human Tie2 (1-452)r4-Fc = target: T3, Human Tie2 (1-452)r4-Fc (human, UniProt Q02763 23-452)
T3 construct: range 1-452
Method: as §1

Human Tie2 (1-452)r5-Fc = target: T4, Human Tie2 (1-452)r5-Fc (human, UniProt Q02763 23-452)
T4 construct: range 1-452
Method: as §1

Human Tie2 (1-452)r6-Fc = target: T5, Human Tie2 (1-452)r6-Fc (human, UniProt Q02763 23-452)
T5 construct: range 1-452
Method: as §1

Human Tie2 (1-452)r7-Fc = target: T6, Human Tie2 (1-452)r7-Fc (human, UniProt Q02763 23-452)
T6 construct: range 1-452
Method: as §1

Human Tie2 (1-452)g2-Fc = target: T7, Human Tie2 (1-452)g2-Fc (human, UniProt Q02763 23-452)
T7 construct: range 1-452
Method: as §1

Human Tie2 (1-452)g3-Fc = target: T8, Human Tie2 (1-452)g3-Fc (human, UniProt Q02763 23-452)
T8 construct: range 1-452
Method: as §1

Human Tie2 (1-452)g4-Fc = target: T9, Human Tie2 (1-452)g4-Fc (human, UniProt Q02763 23-452)
T9 construct: range 1-452
Method: as §1

Human Tie2 (1-452)g5-Fc = target: T10, Human Tie2 (1-452)g5-Fc (human, UniProt Q02763 23-452)
T10 construct: range 1-452
Method: as §1

Human Tie2 (1-452)m1-Fc = target: T11, Human Tie2 (1-452)m1-Fc (human, UniProt Q02763 23-452)
T11 construct: range 1-452
Method: as §1

Human Tie2 (1-452)m3-Fc = target: T12, Human Tie2 (1-452)m3-Fc (human, UniProt Q02763 23-452)
T12 construct: range 1-452
Method: as §1

Human Tie2 (1-452)y1-Fc = target: T13, Human Tie2 (1-452)y1-Fc (human, UniProt Q02763 23-452)
T13 construct: range 1-452
Method: as §1

Human Tie2 (1-452)c1-Fc = target: T14, Human Tie2 (1-452)c1-Fc (human, UniProt Q02763 23-452)
T14 construct: range 1-452
Method: as §1

Human Tie2 (1-452)r1-Fc = target: T15, Human Tie2 (1-452)r1-Fc (human, UniProt Q02763 23-452)
T15 construct: range 1-452
Method: as §1

Human Tie2 (1-452)A1-Fc = target: T16, Human Tie2 (1-452)A1-Fc (human, UniProt Q02763 23-452)
T16 construct: range 1-452
Method: as §1

Human Tie2 (1-452)A2-Fc = target: T17, Human Tie2 (1-452)A2-Fc (human, UniProt Q02763 23-452)
T17 construct: range 1-452
Method: as §1

Human Tie2 (1-452)A3-Fc = target: T18, Human Tie2 (1-452)A3-Fc (human, UniProt Q02763 23-452)
T18 construct: range 1-452
Method: as §1

Human Tie2 (1-452)A4-Fc = target: T19, Human Tie2 (1-452)A4-Fc (human, UniProt Q02763 23-452)
T19 construct: range 1-452
Method: as §1

Human Tie2 (1-452)A6-Fc = target: T20, Human Tie2 (1-452)A6-Fc (human, UniProt Q02763 23-452)
T20 construct: range 1-452
Method: as §1

T1 sequence (Q02763 other isoform, or with tags, fused parts or gaps limits assumed, form in doubt): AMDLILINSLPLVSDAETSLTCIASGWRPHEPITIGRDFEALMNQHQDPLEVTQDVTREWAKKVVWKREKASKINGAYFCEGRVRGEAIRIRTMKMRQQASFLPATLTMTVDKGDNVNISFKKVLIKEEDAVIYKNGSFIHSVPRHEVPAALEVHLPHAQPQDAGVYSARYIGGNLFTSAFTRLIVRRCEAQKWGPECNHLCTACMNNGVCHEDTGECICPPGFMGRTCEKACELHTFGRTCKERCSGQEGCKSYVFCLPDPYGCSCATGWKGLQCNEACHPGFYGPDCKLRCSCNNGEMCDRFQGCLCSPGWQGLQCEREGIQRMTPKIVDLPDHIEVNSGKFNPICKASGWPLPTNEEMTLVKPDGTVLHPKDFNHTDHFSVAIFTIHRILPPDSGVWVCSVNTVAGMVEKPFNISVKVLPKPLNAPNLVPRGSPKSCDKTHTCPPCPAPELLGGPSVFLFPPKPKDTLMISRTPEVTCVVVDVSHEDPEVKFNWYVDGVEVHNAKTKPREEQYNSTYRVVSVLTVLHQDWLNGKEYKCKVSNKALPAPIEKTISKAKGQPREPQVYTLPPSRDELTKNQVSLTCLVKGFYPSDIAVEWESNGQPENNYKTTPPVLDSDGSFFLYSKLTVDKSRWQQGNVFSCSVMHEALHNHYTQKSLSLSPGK
T2 sequence (Q02763 other isoform, or with tags, fused parts or gaps limits assumed, form in doubt): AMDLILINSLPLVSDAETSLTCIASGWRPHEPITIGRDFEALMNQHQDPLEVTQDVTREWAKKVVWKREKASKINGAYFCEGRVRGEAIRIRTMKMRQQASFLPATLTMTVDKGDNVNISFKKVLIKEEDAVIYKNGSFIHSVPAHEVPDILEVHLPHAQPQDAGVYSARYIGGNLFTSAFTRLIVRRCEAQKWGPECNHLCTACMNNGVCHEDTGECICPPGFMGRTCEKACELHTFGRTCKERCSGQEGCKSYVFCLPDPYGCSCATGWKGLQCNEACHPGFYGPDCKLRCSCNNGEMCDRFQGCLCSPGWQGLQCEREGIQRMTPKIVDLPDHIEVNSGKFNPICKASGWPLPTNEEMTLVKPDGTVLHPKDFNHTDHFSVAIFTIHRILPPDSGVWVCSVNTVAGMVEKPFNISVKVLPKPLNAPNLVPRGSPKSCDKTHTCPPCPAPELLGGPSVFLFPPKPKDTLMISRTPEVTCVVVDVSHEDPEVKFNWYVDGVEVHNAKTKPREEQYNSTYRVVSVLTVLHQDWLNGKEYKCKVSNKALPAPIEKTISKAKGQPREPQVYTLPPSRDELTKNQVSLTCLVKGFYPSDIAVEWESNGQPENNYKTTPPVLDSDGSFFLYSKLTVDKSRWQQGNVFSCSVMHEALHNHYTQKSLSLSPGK
T9 sequence (Q02763 other isoform, or with tags, fused parts or gaps limits assumed, form in doubt): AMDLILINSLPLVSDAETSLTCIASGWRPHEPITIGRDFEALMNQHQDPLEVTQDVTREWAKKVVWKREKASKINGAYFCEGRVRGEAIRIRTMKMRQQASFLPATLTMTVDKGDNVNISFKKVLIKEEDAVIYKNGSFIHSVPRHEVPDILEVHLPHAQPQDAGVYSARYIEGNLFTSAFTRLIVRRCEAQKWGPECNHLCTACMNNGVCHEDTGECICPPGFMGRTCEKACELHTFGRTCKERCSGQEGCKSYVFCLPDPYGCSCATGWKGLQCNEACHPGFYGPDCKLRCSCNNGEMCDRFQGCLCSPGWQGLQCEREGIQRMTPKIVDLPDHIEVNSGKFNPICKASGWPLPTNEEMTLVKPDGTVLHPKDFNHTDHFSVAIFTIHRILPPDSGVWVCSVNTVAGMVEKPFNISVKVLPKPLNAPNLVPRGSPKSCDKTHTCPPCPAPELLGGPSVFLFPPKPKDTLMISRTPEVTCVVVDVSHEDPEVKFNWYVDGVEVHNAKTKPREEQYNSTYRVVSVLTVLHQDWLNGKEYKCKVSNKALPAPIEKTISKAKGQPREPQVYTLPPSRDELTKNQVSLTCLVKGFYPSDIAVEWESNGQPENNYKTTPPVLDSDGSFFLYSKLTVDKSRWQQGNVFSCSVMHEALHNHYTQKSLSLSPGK
T6 sequence (Q02763 other isoform, or with tags, fused parts or gaps limits assumed, form in doubt): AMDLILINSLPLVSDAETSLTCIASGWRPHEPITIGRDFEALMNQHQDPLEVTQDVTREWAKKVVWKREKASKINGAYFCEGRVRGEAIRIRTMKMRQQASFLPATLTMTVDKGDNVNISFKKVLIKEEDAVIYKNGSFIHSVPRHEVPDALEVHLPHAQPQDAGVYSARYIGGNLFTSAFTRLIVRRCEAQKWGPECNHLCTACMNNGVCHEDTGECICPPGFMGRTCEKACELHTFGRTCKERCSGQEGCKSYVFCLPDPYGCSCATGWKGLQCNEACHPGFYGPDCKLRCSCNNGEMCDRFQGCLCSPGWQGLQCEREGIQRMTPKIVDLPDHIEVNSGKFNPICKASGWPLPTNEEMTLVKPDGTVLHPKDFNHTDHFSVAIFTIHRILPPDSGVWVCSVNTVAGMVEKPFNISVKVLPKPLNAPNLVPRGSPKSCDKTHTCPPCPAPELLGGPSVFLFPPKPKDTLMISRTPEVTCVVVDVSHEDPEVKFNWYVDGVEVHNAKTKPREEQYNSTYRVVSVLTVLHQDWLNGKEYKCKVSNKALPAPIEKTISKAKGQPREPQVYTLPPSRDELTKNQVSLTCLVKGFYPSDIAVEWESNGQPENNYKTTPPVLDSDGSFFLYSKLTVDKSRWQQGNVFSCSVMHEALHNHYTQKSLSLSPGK
T18 sequence (Q02763 other isoform, or with tags, fused parts or gaps limits assumed, form in doubt): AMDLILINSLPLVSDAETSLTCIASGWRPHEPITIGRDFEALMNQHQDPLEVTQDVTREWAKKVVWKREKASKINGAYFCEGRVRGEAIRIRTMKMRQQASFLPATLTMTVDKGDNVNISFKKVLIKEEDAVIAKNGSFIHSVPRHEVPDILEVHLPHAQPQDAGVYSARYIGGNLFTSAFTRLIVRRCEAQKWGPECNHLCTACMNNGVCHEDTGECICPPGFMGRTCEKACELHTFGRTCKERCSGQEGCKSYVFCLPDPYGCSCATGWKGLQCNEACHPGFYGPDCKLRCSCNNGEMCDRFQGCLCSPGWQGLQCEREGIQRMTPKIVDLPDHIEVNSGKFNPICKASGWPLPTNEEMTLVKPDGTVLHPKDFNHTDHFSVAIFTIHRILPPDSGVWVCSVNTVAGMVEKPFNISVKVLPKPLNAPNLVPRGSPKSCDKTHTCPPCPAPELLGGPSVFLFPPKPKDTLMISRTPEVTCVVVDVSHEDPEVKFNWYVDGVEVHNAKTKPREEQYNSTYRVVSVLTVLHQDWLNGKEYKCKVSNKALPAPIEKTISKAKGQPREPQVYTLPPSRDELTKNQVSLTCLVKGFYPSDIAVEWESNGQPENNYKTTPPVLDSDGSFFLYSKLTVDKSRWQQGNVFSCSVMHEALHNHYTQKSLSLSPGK
T19 sequence (Q02763 other isoform, or with tags, fused parts or gaps limits assumed, form in doubt): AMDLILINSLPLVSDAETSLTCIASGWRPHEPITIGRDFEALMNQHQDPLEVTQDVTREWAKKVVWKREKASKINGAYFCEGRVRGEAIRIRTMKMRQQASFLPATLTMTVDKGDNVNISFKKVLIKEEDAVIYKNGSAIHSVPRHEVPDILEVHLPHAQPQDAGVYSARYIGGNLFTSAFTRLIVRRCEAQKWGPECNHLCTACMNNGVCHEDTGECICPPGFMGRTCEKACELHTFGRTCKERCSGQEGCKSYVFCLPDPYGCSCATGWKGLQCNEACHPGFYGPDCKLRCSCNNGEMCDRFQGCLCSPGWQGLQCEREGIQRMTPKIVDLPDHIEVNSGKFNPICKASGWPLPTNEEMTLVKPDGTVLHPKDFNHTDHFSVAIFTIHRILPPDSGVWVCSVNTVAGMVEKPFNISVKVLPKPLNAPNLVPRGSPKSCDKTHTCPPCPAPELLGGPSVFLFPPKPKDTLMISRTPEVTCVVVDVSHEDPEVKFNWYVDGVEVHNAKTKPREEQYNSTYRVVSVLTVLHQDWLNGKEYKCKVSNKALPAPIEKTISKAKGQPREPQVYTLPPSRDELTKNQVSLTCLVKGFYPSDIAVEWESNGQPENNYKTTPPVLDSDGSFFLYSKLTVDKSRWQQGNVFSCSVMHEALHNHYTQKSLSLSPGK

B1: TIE-1-Igγ1-LALA (antibody, human IgG1, kappa, L234A L235A)
heavy: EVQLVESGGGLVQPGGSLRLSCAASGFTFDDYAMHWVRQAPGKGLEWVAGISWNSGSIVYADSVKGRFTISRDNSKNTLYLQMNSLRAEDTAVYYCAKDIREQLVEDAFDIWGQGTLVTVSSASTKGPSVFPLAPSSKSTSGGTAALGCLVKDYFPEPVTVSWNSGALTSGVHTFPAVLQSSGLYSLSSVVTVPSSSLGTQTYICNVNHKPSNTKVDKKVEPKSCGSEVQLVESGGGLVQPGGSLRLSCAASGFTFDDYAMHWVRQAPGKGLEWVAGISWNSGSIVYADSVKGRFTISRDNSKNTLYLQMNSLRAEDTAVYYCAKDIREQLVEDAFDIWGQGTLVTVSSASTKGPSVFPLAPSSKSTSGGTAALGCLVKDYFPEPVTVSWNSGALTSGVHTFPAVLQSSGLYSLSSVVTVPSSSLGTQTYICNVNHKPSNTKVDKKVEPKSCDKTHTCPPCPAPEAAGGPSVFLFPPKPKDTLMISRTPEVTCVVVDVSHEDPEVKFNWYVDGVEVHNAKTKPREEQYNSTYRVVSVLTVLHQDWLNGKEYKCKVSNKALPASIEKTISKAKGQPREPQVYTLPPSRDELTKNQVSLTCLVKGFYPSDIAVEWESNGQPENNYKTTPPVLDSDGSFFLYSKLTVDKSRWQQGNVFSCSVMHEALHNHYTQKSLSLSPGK
light: DIQMTQSPSSLSASVGDRVTITCRSSQSLLHSHRYNYLDWYQQKPGKAPKLLIYLGSNRASGVPSRFSGSGSGTDFTLTISSVQPEDFATYYCMQTLQTPLTFGQGTKVEIKRTVAAPSVFIFPPSDEQLKSGTASVVCLLNNFYPREAKVQWKVDNALQSGNSQESVTEQDSKDSTYSLSSTLTLSKADYEKHKVYACEVTHQGLSSPVTKSFNRGEC
notes: Tandem tetravalent format: two heavy chains (VH-CH1-linker-VH-CH1-CH2-CH3) and four light chains; also called tetravalent anti-human Tie2 antibody with L234A, L235A and P331S
With B1 the EC50 (Human Tie2 (1-452)r2-Fc) was 0.9 ng/mL, the EC50 (Human Tie2 (1-452)r3-Fc) was 1 ng/mL and the EC50 (Human Tie2 (1-452)r4-Fc) was 1 ng/mL. The EC50 (Human Tie2 (1-452)r5-Fc) was 1 ng/mL, the EC50 (Human Tie2 (1-452)r6-Fc) was 1 ng/mL and the EC50 (Human Tie2 (1-452)r7-Fc) was 1.1 ng/mL. For the same binder, the EC50 (Human Tie2 (1-452)g2-Fc) was 5.5 ng/mL, the EC50 (Human Tie2 (1-452)g3-Fc) was 1.1 ng/mL and the EC50 (Human Tie2 (1-452)g4-Fc) was 18 ng/mL. It also gave an EC50 (Human Tie2 (1-452)g5-Fc) of 2.2 ng/mL, an EC50 (Human Tie2 (1-452)m1-Fc) of 1 ng/mL and an EC50 (Human Tie2 (1-452)m3-Fc) of 1 ng/mL. The EC50 (Human Tie2 (1-452)y1-Fc) was 1 ng/mL, the EC50 (Human Tie2 (1-452)c1-Fc) was 1 ng/mL and the EC50 (Human Tie2 (1-452)r1-Fc) was 1.1 ng/mL. For the same binder, the EC50 (Human Tie2 (1-452)A1-Fc) was 1.3 ng/mL, the EC50 (Human Tie2 (1-452)A2-Fc) was 1.3 ng/mL and the EC50 (Human Tie2 (1-452)A3-Fc) was 1 ng/mL. The EC50 (Human Tie2 (1-452)A4-Fc) was 1 ng/mL and the EC50 (Human Tie2 (1-452)A6-Fc) was 1.1 ng/mL.
